Assay results as given in the supplement of paper PMC6379048.

What was measured:
Assay in all cases: Kd (EC50 corrected by depletion factor)
[1] = molecular target: RPS17 (UniProt P08708)
How it was run: (§1)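 To obtain EC50, data were fitted with a four-parameter log-logistic model; Kd was then EC50 multiplied by a protein-dependent depletion factor. Beforehand, free RNA oligos (0 nM to 30 μM) were pre-incubated with HEK293-FT lysate (2.5 mg protein/well) for 1 h at 4°C. The lysate then spent 30 min at 4°C with the same 5′-amino-C6 oligos coupled to NHS-Sepharose beads, and bound proteins were quantified by label-free LC-MS/MS, normalised to the control.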

[2] = molecular target: RPS3A (UniProt P61247)
How it was run: as §1

[3] = molecular target: RPS19 (UniProt P39019)
How it was run: as §1

[4] = molecular target: T1, PATL1 (UniProt Q86TB9)
T1 sequence: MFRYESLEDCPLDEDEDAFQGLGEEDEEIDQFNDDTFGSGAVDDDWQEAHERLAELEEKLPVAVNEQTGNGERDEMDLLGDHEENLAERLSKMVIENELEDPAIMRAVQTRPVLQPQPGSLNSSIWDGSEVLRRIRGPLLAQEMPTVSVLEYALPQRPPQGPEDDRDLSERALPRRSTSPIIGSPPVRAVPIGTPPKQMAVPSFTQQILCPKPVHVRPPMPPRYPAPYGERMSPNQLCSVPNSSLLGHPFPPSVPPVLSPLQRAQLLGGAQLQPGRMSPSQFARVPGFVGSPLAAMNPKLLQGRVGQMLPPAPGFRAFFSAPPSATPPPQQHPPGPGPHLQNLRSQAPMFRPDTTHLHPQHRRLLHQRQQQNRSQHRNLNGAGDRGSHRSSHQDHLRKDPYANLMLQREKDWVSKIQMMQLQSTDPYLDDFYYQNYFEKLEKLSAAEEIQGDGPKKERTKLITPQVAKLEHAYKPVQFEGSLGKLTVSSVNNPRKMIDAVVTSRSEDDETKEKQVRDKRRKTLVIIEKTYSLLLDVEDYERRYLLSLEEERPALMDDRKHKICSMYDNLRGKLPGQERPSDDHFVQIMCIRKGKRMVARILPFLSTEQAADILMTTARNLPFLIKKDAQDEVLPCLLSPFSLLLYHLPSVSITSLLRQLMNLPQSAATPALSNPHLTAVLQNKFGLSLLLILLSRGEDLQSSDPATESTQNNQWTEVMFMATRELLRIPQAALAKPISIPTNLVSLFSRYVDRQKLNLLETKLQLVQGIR
How it was run: as §1

[5] = molecular target: T2, MYEF2 (UniProt Q9P2K5)
T2 sequence: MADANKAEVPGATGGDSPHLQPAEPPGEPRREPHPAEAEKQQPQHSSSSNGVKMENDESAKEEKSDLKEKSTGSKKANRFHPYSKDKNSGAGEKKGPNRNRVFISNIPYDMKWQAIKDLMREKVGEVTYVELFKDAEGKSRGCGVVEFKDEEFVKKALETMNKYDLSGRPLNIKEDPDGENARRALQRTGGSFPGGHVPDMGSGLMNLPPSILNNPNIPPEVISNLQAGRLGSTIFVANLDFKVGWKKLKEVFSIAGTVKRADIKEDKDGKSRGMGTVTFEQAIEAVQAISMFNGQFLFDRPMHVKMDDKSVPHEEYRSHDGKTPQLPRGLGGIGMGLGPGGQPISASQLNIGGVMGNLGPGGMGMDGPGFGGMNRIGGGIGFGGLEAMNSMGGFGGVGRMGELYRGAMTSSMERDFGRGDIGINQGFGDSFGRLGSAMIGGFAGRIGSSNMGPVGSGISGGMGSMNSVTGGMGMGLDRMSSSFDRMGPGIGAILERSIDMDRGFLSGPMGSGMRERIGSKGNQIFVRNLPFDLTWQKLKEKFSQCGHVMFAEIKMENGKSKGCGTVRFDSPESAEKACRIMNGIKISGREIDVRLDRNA
How it was run: as §1

[6] = molecular target: T3, MEX3D (UniProt Q86XN8)
T3 sequence: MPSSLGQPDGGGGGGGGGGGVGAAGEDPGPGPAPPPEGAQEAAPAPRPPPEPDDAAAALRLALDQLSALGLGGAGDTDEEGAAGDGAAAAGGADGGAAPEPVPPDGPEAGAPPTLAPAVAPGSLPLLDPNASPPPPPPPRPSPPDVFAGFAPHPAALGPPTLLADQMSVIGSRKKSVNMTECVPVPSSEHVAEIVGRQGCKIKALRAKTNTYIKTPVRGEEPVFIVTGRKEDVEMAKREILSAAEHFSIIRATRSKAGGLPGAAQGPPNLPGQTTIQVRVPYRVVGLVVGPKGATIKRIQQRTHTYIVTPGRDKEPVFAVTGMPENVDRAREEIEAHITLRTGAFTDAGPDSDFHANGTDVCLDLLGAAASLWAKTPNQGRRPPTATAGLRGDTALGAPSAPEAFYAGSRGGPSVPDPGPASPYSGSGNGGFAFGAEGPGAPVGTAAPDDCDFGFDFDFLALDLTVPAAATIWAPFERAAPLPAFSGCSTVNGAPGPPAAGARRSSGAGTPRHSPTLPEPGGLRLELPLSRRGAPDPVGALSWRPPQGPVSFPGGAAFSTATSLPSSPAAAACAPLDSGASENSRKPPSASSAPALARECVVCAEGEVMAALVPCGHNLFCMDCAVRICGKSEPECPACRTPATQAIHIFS
How it was run: as §1

In the case of AAUAAA, the Kd [1] is reported as 126 nM.

CUGUCCU was tested, and the Kd [2] was 64.2 nM and the Kd [3] was 69.9 nM.

With UAUUUAU the Kd [4] was 258 nM, the Kd [5] was 2700 nM and the Kd [6] was 465 nM.
